Source: US20230220115A1

How the values were obtained:
CD20 Lipoparticles = CD20 Lipoparticles (UniProt P11836)
[1] = biological target: recombinant human Fc gamma receptor CD16b (FcRγIIIb) (human) (UniProt O75015)
[2] = biological target: recombinant human Fc gamma receptor CD64 (FcRγI) (human) (UniProt P12314)
[3] = biological target: recombinant human Fc gamma receptor CD32b/c (human) (UniProt P31994)
[4] = biological target: recombinant human Fc gamma receptor CD32a 131H (human) (UniProt P12318)
recombinant human Fc gamma receptor CD32a 131H (human), sequence (P12318 36-218): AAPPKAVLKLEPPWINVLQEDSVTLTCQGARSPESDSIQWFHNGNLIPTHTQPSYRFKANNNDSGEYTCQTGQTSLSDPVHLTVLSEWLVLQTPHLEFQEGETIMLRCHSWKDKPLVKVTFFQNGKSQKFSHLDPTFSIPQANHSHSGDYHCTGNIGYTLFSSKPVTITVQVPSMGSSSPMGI

[5] = biological target: recombinant human Fc gamma receptor CD16a 158V (FcRγIIIa) (human) (UniProt P08637)
recombinant human Fc gamma receptor CD16a 158V (FcRγIIIa) (human), sequence (P08637 17-208 F176V limits assumed): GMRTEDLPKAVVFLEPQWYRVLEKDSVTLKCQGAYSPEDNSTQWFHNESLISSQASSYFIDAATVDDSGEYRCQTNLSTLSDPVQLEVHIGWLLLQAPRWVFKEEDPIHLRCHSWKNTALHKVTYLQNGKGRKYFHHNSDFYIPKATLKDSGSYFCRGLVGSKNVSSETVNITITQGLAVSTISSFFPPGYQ

[6] = biological target: recombinant human Fc gamma receptor CD32a 131R (human) (UniProt P12318)
recombinant human Fc gamma receptor CD32a 131R (human), sequence (P12318 36-218 H167R): as the sequence (P12318 36-218) above, with H132R counted along it

recombinant human Fc gamma receptor CD16b (FcRγIIIb) (human), sequence (O75015 17-200 limits assumed): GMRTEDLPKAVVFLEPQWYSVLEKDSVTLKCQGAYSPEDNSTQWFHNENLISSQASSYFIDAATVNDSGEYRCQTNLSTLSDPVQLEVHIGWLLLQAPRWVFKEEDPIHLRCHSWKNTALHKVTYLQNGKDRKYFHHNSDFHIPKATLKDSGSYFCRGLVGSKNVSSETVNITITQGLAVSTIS
recombinant human Fc gamma receptor CD32b/c (human), sequence (P31994 46-217): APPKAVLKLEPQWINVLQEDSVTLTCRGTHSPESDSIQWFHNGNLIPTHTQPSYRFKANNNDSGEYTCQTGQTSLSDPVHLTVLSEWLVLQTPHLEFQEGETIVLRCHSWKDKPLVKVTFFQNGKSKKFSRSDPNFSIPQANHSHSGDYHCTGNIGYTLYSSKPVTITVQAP
recombinant human Fc gamma receptor CD64 (FcRγI) (human), sequence (P12314 16-288 limits assumed): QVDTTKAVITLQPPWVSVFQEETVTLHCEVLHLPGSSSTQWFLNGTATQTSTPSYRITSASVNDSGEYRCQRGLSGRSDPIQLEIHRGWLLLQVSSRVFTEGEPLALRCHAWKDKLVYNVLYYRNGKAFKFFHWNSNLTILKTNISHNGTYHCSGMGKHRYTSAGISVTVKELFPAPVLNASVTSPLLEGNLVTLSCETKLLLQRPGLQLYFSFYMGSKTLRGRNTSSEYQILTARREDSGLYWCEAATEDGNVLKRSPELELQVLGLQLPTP
CD20 Lipoparticles, sequence (P11836 whole entry): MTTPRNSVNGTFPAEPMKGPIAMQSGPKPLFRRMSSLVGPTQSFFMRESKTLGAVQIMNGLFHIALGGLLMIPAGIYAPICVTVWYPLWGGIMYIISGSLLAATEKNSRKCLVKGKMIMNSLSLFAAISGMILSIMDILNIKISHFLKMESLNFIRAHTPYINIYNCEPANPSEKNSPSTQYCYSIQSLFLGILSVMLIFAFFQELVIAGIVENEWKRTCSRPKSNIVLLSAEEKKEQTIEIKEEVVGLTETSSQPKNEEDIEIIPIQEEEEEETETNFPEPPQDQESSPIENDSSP

Substance Rituxan (antibody) has a Kd (CD20 Lipoparticles) of under 0.001 nM, a Kd [1] of 1530 nM and a Kd [2] of 52.8 nM. The Kd [3] was 1520 nM, the Kd [4] was 892 nM and the Kd [5] was 715 nM. The Kd [6] was 1250 nM.
